Reference: patent US20240392004A1 (IMMUNOWAKE, published 2024)

T1: IFN-γ receptor (IFNGR1 and IFNGR2) (UniProt P15260 18-489; P38484 22-337, limits assumed)
T1 sequence (looked up) 1: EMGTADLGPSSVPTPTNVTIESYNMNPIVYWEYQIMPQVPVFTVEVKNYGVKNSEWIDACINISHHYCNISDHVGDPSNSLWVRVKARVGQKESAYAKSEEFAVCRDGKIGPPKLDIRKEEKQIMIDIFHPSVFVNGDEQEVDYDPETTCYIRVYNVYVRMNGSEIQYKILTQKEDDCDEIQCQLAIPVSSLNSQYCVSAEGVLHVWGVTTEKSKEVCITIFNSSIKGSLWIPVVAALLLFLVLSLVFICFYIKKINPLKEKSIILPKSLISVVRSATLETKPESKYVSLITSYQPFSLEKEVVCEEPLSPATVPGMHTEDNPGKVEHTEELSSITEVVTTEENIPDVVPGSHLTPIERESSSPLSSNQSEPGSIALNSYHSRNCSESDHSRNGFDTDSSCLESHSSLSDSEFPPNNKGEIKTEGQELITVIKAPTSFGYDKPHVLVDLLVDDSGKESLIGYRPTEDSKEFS
T1 sequence (looked up) 2: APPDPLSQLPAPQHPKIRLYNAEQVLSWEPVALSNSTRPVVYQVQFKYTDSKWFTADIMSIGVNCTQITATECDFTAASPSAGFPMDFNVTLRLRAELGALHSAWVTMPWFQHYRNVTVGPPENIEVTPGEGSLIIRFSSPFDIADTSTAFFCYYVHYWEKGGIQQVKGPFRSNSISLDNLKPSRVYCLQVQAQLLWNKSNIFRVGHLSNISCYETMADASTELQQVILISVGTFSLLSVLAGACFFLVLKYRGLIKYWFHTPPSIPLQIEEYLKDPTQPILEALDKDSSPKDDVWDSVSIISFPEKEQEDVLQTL

T2: human TIGIT on HEK-Blue reporter cells (human, UniProt Q495A1 22-244)
T2 sequence (looked up): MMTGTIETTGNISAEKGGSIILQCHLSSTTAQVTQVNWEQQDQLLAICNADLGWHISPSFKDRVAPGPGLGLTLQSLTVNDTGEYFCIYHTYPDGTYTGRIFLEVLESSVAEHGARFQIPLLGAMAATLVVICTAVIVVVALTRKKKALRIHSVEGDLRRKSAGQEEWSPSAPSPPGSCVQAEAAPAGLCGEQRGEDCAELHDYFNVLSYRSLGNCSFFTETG

B1: IL-12(E59A/F60A)/IFN-γ(A23V/A23V)/CD155-Fc (Fc fusion)
chain 1: WPPPGTGDVVVQAPTQVPGFLGDSVTLPCYLQVPNMEVTHVSQLTWARHGESGSMAVFHQTQGPSYSESKRLEFVAARLGAELRNASLRMFGLRVEDEGNYTCLFVTFPQGSRSVDIWLRVLAKPQNTAEVQKVQLTGEPVPMARCVSTGGRPPAQITWHSDLGGMPNTSQVPGFLSGTVTVTSLWILVPSSQVDGKNVTCKVEHESFEKPQLLTVNLTVYYPPEVSISGYDNNWYLGQNEATLTCDARSNPEPTGYNWSTTMGPLPPFAVAQGAQLLIRPVDKPINTTLICNVTNALGARQAELTVQVKEGPPSEHSGISRNGGGGSGGGIWELKKDVYVVELDWYPDAPGEMVVLTCDTPEEDGITWTLDQSSEVLGSGKTLTIQVKAAGDAGQYTCHKGGEVLSHSLLLLHKKEDGIWSTDILKDQKEPKNKTFLRCEAKNYSGRFTCWWLTTISTDLTFSVKSSRGSSDPQGVTCGAATLSAERVRGDNKEYEYSVECQEDSACPAAEESLPIEVMVDAVHKLKYENYTSSFFIRDIIKPDPPKNLQLKPLKNSRQVEVSWEYPDTWSTPHSYFSLTFCVQVQGKSKREKKDRVFTDKTSATVICRKNASISVRAQDRYYSSSWSEWASVPCSGGGGSGGGSGGGGSRNLPVATPDPGMFPCLHHSQNLLRAVSNMLQKARQTLEFYPCTSEEIDHEDITKDKTSTVEACLPLELTKNESCLNSRETSFITNGSCLASRKTSFMMALCLSSIYEDLKMYQVEFKTMNAKLLMDPKRQIFLDQNMLAVIDELMQALNFNSETVPQKSSLEEPDFYKTKIKLCILLHAFRIRAVTIDRVMSYLNASGGGGSGGGDKTHTCPPCPAPEDEGGPSVFLFPPKPKDTLMISRTPEVTCVVVDVSHEDPEVKFNWYVDGVEVHNAKTKPREEQYNSTYRVVSVLTVLHQDWLNGKEYKCKVSNKALPAPIEKTISKAKGQPREPQVYVYPPSREEMTKNQVSLTCLVKGFYPSDIAVEWESNGQPENNYKTTPPVLDEDGSFALVSKLTVDKSRWQQGNVFSCSVMHEALHNHYTQKSLSLSPGK
chain 2: WPPPGTGDVVVQAPTQVPGFLGDSVTLPCYLQVPNMEVTHVSQLTWARHGESGSMAVFHQTQGPSYSESKRLEFVAARLGAELRNASLRMFGLRVEDEGNYTCLFVTFPQGSRSVDIWLRVLAKPQNTAEVQKVQLTGEPVPMARCVSTGGRPPAQITWHSDLGGMPNTSQVPGFLSGTVTVTSLWILVPSSQVDGKNVTCKVEHESFEKPQLLTVNLTVYYPPEVSISGYDNNWYLGQNEATLTCDARSNPEPTGYNWSTTMGPLPPFAVAQGAQLLIRPVDKPINTTLICNVTNALGARQAELTVQVKEGPPSEHSGISRNGGGSGQDPYVKEAENLKKYFNAGHSDVVDNGTLFLGILKNWKEESDRKIMQSQIVSFYFKLFKNFKDDQSIQKSVETIKEDMNVKFFNSNKKKRDDFEKLTNYSVTDLNVQRKAIHELIQVMAELSPAAKTGKRKRSQMLFRGGGGSGGGGSGGGGSGGGGSQDPYVKEAENLKKYFNAGHSDVVDNGTLFLGILKNWKEESDRKIMQSQIVSFYFKLFKNFKDDQSIQKSVETIKEDMNVKFFNSNKKKRDDFEKLTNYSVTDLNVQRKAIHELIQVMAELSPAAKTGKRKRSQMLFRGGGGGSGGGDKTHTCPPCPAPEKKGGPSVFLFPPKPKDTLMISRTPEVTCVVVDVSHEDPEVKFNWYVDGVEVHNAKTKPREEQYNSTYRVVSVLTVLHQDWLNGKEYKCKVSNKALPAPIEKTISKAKGQPREPQVYVLPPSREEMTKNQVSLLCLVKGFYPSDIAVEWESNGQPENRYMTWPPVLDSDGSFFLYSKLTVDKSRWQQGNVFSCSVMHEALHNHYTQKSLSLSPGK
B2: IFN-γ(A23V/A23V)/CD155-Fc (Fc fusion)
chain 1: WPPPGTGDVVVQAPTQVPGFLGDSVTLPCYLQVPNMEVTHVSQLTWARHGESGSMAVFHQTQGPSYSESKRLEFVAARLGAELRNASLRMFGLRVEDEGNYTCLFVTFPQGSRSVDIWLRVLAKPQNTAEVQKVQLTGEPVPMARCVSTGGRPPAQITWHSDLGGMPNTSQVPGFLSGTVTVTSLWILVPSSQVDGKNVTCKVEHESFEKPQLLTVNLTVYYPPEVSISGYDNNWYLGQNEATLTCDARSNPEPTGYNWSTTMGPLPPFAVAQGAQLLIRPVDKPINTTLICNVTNALGARQAELTVQVKEGPPSEHSGISRNGGGGSGGGDKTHTCPPCPAPEDEGGPSVFLFPPKPKDTLMISRTPEVTCVVVDVSHEDPEVKFNWYVDGVEVHNAKTKPREEQYNSTYRVVSVLTVLHQDWLNGKEYKCKVSNKALPAPIEKTISKAKGQPREPQVYVYPPSREEMTKNQVSLTCLVKGFYPSDIAVEWESNGQPENNYKTTPPVLDEDGSFALVSKLTVDKSRWQQGNVFSCSVMHEALHNHYTQKSLSLSPGK
chain 2: WPPPGTGDVVVQAPTQVPGFLGDSVTLPCYLQVPNMEVTHVSQLTWARHGESGSMAVFHQTQGPSYSESKRLEFVAARLGAELRNASLRMFGLRVEDEGNYTCLFVTFPQGSRSVDIWLRVLAKPQNTAEVQKVQLTGEPVPMARCVSTGGRPPAQITWHSDLGGMPNTSQVPGFLSGTVTVTSLWILVPSSQVDGKNVTCKVEHESFEKPQLLTVNLTVYYPPEVSISGYDNNWYLGQNEATLTCDARSNPEPTGYNWSTTMGPLPPFAVAQGAQLLIRPVDKPINTTLICNVTNALGARQAELTVQVKEGPPSEHSGISRNGGGSGQDPYVKEAENLKKYFNAGHSDVVDNGTLFLGILKNWKEESDRKIMQSQIVSFYFKLFKNFKDDQSIQKSVETIKEDMNVKFFNSNKKKRDDFEKLTNYSVTDLNVQRKAIHELIQVMAELSPAAKTGKRKRSQMLFRGGGGSGGGGSGGGGSGGGGSQDPYVKEAENLKKYFNAGHSDVVDNGTLFLGILKNWKEESDRKIMQSQIVSFYFKLFKNFKDDQSIQKSVETIKEDMNVKFFNSNKKKRDDFEKLTNYSVTDLNVQRKAIHELIQVMAELSPAAKTGKRKRSQMLFRGGGGGSGGGDKTHTCPPCPAPEKKGGPSVFLFPPKPKDTLMISRTPEVTCVVVDVSHEDPEVKFNWYVDGVEVHNAKTKPREEQYNSTYRVVSVLTVLHQDWLNGKEYKCKVSNKALPAPIEKTISKAKGQPREPQVYVLPPSREEMTKNQVSLLCLVKGFYPSDIAVEWESNGQPENRYMTWPPVLDSDGSFFLYSKLTVDKSRWQQGNVFSCSVMHEALHNHYTQKSLSLSPGK

Tests used:
Test in all cases: cell-based or functional assay
[1] = molecular target: T1, IFN-γ receptor (IFNGR1 and IFNGR2)
[2] = molecular target: human IL-12 receptor complex (IL-12Rβ1 and IL-12Rβ2) (human, UniProt P42701 24-662; Q99665 24-862)
[3] = molecular target: T2, human TIGIT on HEK-Blue reporter cells

human IL-12 receptor complex (IL-12Rβ1 and IL-12Rβ2), sequence (Q99665 24-862, chain 2 of 2, other chains not shown): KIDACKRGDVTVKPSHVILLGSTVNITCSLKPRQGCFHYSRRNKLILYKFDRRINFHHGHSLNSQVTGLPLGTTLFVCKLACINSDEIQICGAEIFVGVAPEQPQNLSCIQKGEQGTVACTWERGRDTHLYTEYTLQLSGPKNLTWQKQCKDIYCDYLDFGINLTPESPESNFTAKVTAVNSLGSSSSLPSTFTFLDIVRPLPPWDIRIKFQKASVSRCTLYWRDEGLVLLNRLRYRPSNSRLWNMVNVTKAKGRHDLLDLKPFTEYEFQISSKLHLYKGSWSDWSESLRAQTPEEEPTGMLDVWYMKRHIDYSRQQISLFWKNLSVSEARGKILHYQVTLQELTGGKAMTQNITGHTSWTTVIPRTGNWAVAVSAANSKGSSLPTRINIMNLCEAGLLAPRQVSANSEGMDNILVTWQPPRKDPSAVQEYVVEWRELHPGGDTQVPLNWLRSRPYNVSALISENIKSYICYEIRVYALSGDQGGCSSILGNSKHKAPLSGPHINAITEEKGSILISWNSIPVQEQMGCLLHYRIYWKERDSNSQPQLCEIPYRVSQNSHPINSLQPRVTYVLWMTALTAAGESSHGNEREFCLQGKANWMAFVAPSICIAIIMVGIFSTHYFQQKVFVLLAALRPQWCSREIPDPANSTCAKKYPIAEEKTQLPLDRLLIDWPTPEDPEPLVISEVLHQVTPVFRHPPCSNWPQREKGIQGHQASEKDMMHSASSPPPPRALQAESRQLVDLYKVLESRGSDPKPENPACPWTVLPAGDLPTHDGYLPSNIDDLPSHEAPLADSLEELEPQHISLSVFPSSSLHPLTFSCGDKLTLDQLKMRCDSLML

Row | Binder | IFN-γ signal transduction, HEK-IFN-γ [1] [%] | IL-12 signal transduction, HEK-IL-12 [2] [%] | IL-12 signal transduction, HEK-IL-12-TIGIT [3] [%]
1 | B1 | < 0.2 | < 0.2 | 40
2 | B2 | < 0.2 |  | 
